Test results as given in the domain aggregation screens of Martell et al. (2025).

Assay: soluble fraction after stress (log2 fold change); higher = more stays soluble; pooled small domains, quantitative proteomics
Conditions: stress: 50 degC
Outline: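 Pooled custom libraries of small protein domains were each held under stress at 50°C. The read-out, high-throughput quantitative proteomics, tracked how much of each protein stayed soluble. This is reported as a base-two log fold change used to indicate aggregation propensity. Higher values mean more protein remains in solution.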

| Sequence | soluble fraction (log2) |
| --- | --- |
| HMEDEVYFVPSPASRFNPWIAALASRRVPYRVEYDGAERRIAVPAGYAEKAGEELAAYERINHAWPR | -0.271 |
| HMEDFDLSDTERKIIAQIGHGYSNKEIAQKLGFSEGTIRNYLSVILDKLDLRDRTQLAIWYLSR | -0.143 |
| HMEDIAAIAQRIQGLRDIVGISVEEMAKALDISEQEYREYEKGETDFSFSFLYTVANVLGINITDLI | -0.709 |
| HMEDIEEVIVEIDTVLRTHFDRGRTEVLFAEIETAGGRPFMTYLALLFMAHRGSVRLQQDDLFGDLWVKDP | -0.0374 |
| HMEDISLYKILRAHSIDNLKLSQWIIDSLKTKFSTIGELQDAKIDDIRMYRIQDVRIEKIKNAVTEYMA | -0.926 |
| HMEDISQHAVKKLVQEMVMAEDPRDPLSDQQIAENLSRLGLKVARRTVAKYRAMLGIQPSNRRRK | -0.0553 |
| HMEDIVDLVVEPEAAGRRLDAWLASRIERLSRSRIKALIESGHVAIGGATIVEAKKPVNSGDVVQLSVPEG | 0.0215 |
| HMEDKQRRMGELVALLNRAAYAYYTKDEPIMADVQYDRLYDELLSLEKETGVQMADSPTHRV | -0.173 |
| HMEDLMEERKEHLLSVMKDPAYVPMKQKELAMLLNVPKGLREELNQVLDALVAEGSVVMSKRGKYTIPQ | -0.0312 |
| HMEDNLVTYPNPTSDYIYVSKKVDLTVVNMLGDILIQKQNINVLDVTELTPGMYTIVIRYNNVTTNKRIIK | -0.372 |
| HMEDPFATLGVHREASLDEIKRAYRRLAMFWHPDRNPEAVAGTEFKRVHAAYELLLDPQRLAEWQQAQAT | 0.04 |
| HMEDPLAAQWKQGRKLFHDDYGYGIISKAFTAGDELVIMVQFENGGEKRFLPKYQAHNLLLVEQ | -0.218 |
| HMEDQVITQFNMRLIRAVMPQGAPMIVVYEDPKDYPGLFVARLFDGRKSTHLIALADTLEDI | -0.123 |
| HMEDVDTAALEKVIATAKGLNKNDYTATTWTTMQAALTNAEKALEAKKSQTSVDEAAKTLQAAIDGLKKAS | 0.215 |
| HMEDVPYMIKLPSHHYLTKMVDGSTGWSLVQNSNTVVGSSKEELLKQYPEYEDFIVQEPLNV | 0.101 |
| HMEDVSTLAVKQRIDDLVKQENPAKPLSDSDIVARLKTDGIYIARRTVAKYRMELNIPSSSARKRAQQFS | -0.833 |
| HMEDWTPERFVGAFVSGGPALRDEILLAATKDLSHAQATRLLKLAEARGLVHRSQPGPSERVRFVVARK | -0.258 |
| HMEDYTPLQELGLKARYIELLEKGGIFSVEDLVQKSVDDLKDIDGIGEKTAKEIWEIVDSMVDF | -0.137 |
| HMEDYYKEDYYTEVLKIPKEYIKGFQYYLIEDAEFVNALNAKNKTMTSFLAKKLASDYIEIIHQEQ | -1.46 |
| HMEEDDGVDFHERLTELNDEQVYYLINTEPAKVIALALDQLGQKRKINIMNRFNPDMKHSIIMELGKL | -0.516 |
| HMEEDGAPLESREVLLDQAISQGKGTQWTIATETKLEDHIVSGAYSTDGKVTLAVFSPLGDGKYEFSSSVN | 0.0751 |
| HMEEDPIIIAQRFLNIFRQLHIFSEEKKESFNKMLLEQPAEIRGALRSLPGGGLLQDYIDDLESKA | -0.151 |
| HMEEEEITIHIIGEVKYPGIVILKTGQRIIDAIDAAGGETEEADLNKINLAQLLSDGDKIYVPSINDN | -0.0785 |
| HMEEFAGYINGQPYYGPTHQHRGVKMVGAEHTQRPHPLVWDSVAKSLDNYDNRFQWVNGNLLQVV | 0.0306 |
| HMEEFGRRLKERMIDKNMTEAELAQKTELWSSILTSYLKGERFPGYYTLLRIAEALDVSIDFLLGLRDEPE | -1.54 |

| Sequence | soluble fraction (log2) |
| --- | --- |
| HMEEILLSVKADGTYWVDQKEVTLDEVGALLDKEPDRLLNIFMDEKVPVRHFINVVDIAKVKREGRFII | -0.453 |
| HMEEIQLILAKNLKSIREKEKLSLEKVSQLTGVSKTMIGQIERGDSSPTLTTIWKIANGLKVSFTSLINNP | -2.01 |
| HMEEKKYEVGDVVSFNYLYKNSFAEGKVSSLIHSGTITRIIDGRPAPYLINRGTGWLSNDLILT | -0.958 |
| HMEEKNNIIVSYIEDKISELEKASMYVPNENKEKLIMAFKNRNEDIDVIKTRIDTIFNNSVAAYKENME | 0.21 |
| HMEEKTMNLPPSAKLVYKILSYEGNLTQKEIINMTYLPERTVRHALELLLGKRLITRQAYLNDARQSVYG | -1.66 |
| HMEEKVEVPNLSGKTYQQAKALLESYGLVAAKGGEEESEEPVGKVSRWSSAGKSVKKGTTITVWISGGI | -0.0709 |
| HMEEKWKENYEKIKLFISINNRYPSVYSEDKEEGLIGSFMSNQKRRKNKLSKEKMALFEALPNWIWE | -1.72 |
| HMEELNFYPNPAYKYINLDYVGLKEIYTVLGKKLLETYDTRINISNLNSGIYLIKFKNQALRFVK | -0.0334 |
| HMEELVGFEEKVRSILTSPLSAKEIKEKTHIEIDTRKLSKMLSELSFIKTEKKNGKKIFRLVS | -0.284 |
| HMEEMADILKTRIDTLDLSTRTLNALTGANIRTVGGIARKKKEDLLELAGMGEKGIQEIKKVLGGFGITL | -0.0181 |
| HMEEPEYELLRQAVLALPEKYRLPIHLYYYEEYSVREIAEILQRKESAVQTQLQRGREKIRRSLTEKGVS | -0.77 |
| HMEEPLIISIDSNGAVYLEVDSFKDQSIEMSSLREIIEKIILANPDIQVVVRGDSEVKYEKVMDLMSILQS | -1.29 |
| HMEEQGLPLVIISDGKVLAQNLTLRSLDRAWLQDQLTQHGHSKPEQVFLLTVDERGAVYYVPKE | -0.37 |
| HMEEQQIQLIQMKMEKDHKYVGKKISELRIKNMLIVLIKRGDEDIIPRAEVKIKEGDILVLSAQSYEG | -0.00468 |
| HMEETAFEKLSPLQKLRALGKPLTMINMRDGSQIAGSVQRSDDKFLYLDTGDGIAKLPVEEILRRTPM | 0.25 |
| HMEETIVFGQQKAINALSSDAGLSSNELDSYLKKRYKRPLYQLSKSEGAELIQGFQDGSLSKASIMDYVS | 0.169 |
| HMEEVIEVEGKITAVLPSTMFRAELENGHQVLAHISGKLRKHFIKITVGDIVKMEMSTQDLQKARIV | -0.307 |
| HMEEVRFPLKKEILLWALKEAQVDEDEVFRKFTNLEKWINGEKHPTFKQIESLANYLKIPFGYMFLEKPPI | 0.0399 |
| HMEEVVIPDLAGLTEEEATKVLMAKELKLKVSGSQHSDIEKGLIISQDPPAGEKGAKNSQVAVVTSSG | 0.103 |
| HMEFDFGAILSGNGGSELYSGYSAEQKAALVEAAKADGMDVEFGADGSTTFKDKDGSEVVQKADGTWTV | 0.18 |
| HMEFDVELTSFEEAKKLKVIKEVKDVTGLSLGEAKDLVMGAPKAIKTGVSKEEAEAIKTQIEAAGAVVTI | 0.122 |
| HMEFDYIVKVPDVRNKKIEDAGKILIDLGLKYTTESDYITQDLKVIDQFPLPGTEVSKGSIIDIYLEEDFK | 0.0944 |
| HMEFEKYKYHYIFDDVLGLRIVWDRGKEHFSYFVNEELAEKSRKSDKDALEVMFYLEHKRWPEEGELENY | -0.687 |
| HMEFEYTVVVPETRGKTIGEAGRILLDLELKYTSESMNIREDSKVIDQFPSPGTEVSKGSIIDLYLDE | 0.0563 |
| HMEFQISLAAARVNANMTQEDTARAMKVSKTTIVNWEKGKVIPGIPEVEMMSRLYGIPQDYIFLP | -3.2 |

| Sequence | soluble fraction (log2) |
| --- | --- |
| HMEFSYLEEIGHEKGDLIKGLQLIQQKEGYVSDDAVRAVAENFGMSPAEVEGVLTFYAQFKR | -0.061 |
| HMEGFKSVYFLTTPSGAEISDRSVGDIISKTPSLVSAQEGTEFEFNLKGYQPSFYMINKRSPDRVFVELIP | -0.535 |
| HMEGLEKDDGGYYFEKDNGERARNEWVYVEYEGKGYWYYMTDYGYPLRSAITPDGYKVNSNGHWIDEGN | -0.825 |
| HMEGLESVVPDLRGKSLKSAAIAAGLSGFALSPEGSGIVYKQSPAPGGRYLKGTLIAVWLRT | -0.513 |
| HMEGMQATVTQITDEGITVRYVMNGQMVTRTLTSDEVAFVNRGQAVSDLAGAYRVGQTVWIY | -0.0401 |
| HMEGNAFASTGDPEADILDITAVHPMRRDAVEELLARSGAEWSLVEGMLRDGKITMAPWEGEEFFIRS | 0.0467 |
| HMEGNWGLWAKVPNRFAALTTDKDSALRRFKSKEDGEAWMASHGLKPERFDVLEIPADYKPA | 0.0433 |
| HMEGRHFRILYILLNNERVTAPELAEEFGVSVRTIYRDIDTMSAAGIPIYMQGGRKGGIYLLEGY | -1.16 |
| HMEGSRASMDGQVPGKTSYLEWLARQPAQRQDQVLGAERGRLFRAGEIDLADMFTDKGEWISLERLKQLS | 0.221 |
| HMEGVSNLIVSVTRVKVTVDLSQAKVYLSIFPSEQAAFYLNALQQNRFQLKHDLSQLLKNQLRRIPTLQF | 0.283 |
| HMEHDYGLSGREREVLELMVQGLVKKEIADRLALSYHTVDNHLRSIYAKLQVHTRGGAVAKALSEHLVPP | 0.217 |
| HMEHGQWLSEAQGASLAADWLARRRGVLPLNARRHLSGLSDQIARQIEGGLSREAGLYTAHEMMESLDP | -0.224 |
| HMEHNDPEVERTMFQGLEALKLQLFEKAFGHFSLLIKLAPDYAEAWNKRATVLYLMGRFKESESDVMRTLE | 0.0585 |
| HMEHQLLHMEKTIFEEIADDYPQLNHTKIRNVLAAFLFTNDDVFKRIADLSGGERGRVSLAKLMLSDA | -0.188 |
| HMEHTPYLTEREADVVRLLVSGLDTAQIAQRLGIKTATVTAHKKHIFLKIGVRNTTQLVAWALIR | -2.34 |
| HMEIELHNLALNIKEFRKKNKLSQAELAEKLGVARTTIGYYERAEVEPNIYTLVQLSKLMNRSIDSLLGL | -1.3 |
| HMEIFYGDDRVYTVSLHGQNNFPFRKKTSDFDYGFEDGTGDEEYLRVLDVTLSRLENEQFDLLFFQAGV | -0.203 |
| HMEIFYSARAWAKLNDLVATRTYLQHLGAIAGRIGRSEGLSPDRIPDGRDGAVNGWPLWVWDRAYAEVS | -2.89 |
| HMEIGLIRVDSRLIHGQVITKWLNYSKANVIVVVDDELSKDSFMSEIYKASAPNGIIVEILSIDDFMKNT | 0.00544 |
| HMEIHIGSLIKEKMEERGLSVSDFAHALHYERTNIYKIFKRSSIDVDLLLRISEVLAYDFLREVYL | -2.63 |
| HMEINKLIELIGGYKALSEVLNVSKSAISNYKKRGSLPSYAIPIIVKELKSKGISIDLSEFT | -0.66 |
| HMEISAIIGNNLQQLRKEQGLSLDQLALKTGVSKAVLSQLENGKANPTINTIWKIATALHVTYSALLEPP | -0.391 |
| HMEISEILNPPLVTAMAERYPEVDVSYYRDKYILYYESREHKITDHRRNFEKWLLVESQKEEN | -1.07 |
| HMEISTENESFSNGLLEHPHYTRPPVWEDLKIPAVLMSGHHGKVAEWRKQQSEALTQERRPDLWEAFG | -0.0409 |
| HMEITSSNELKKMISNLINSENKNNPISDSNIVEKLKENDFLVARRTVAKYRKLLGIKNVNQRKE | -0.112 |
